The values below come from patent US20060019342A1 (AstraZeneca / MedImmune, published 2006).

Changes are numbered by the printed parent chain. In names and notes the source's numbering stands.

In assay [1] the target is T1, EphA2-Fc (UniProt P29317 25-534, limits assumed).
T1 construct: Amine-coupled to a CM5 chip; not shown: Fc part
The assay is described as follows: SPR (BIAcore 3000), EphA2-Fc immobilized on CM5 chip, soluble IgG, 1:1 Langmuir fit. The protocol:
(§1) The interaction of soluble 12G3, 4C10, 12G3/Mut and 4C10/Mut with immobilized EphA2-Fc was monitored by surface plasmon resonance detection using a BIAcore 3000 instrument (Pharmacia Biosensor, Uppsala, Sweden). EphA2-Fc was coupled to the dextran matrix of a CM5 sensor chip (Pharmacia Biosensor) using an Amine Coupling Kit as described (Johnsson et al. supra) at a surface density of 162 RU. IgGs were diluted in 0.01 M HEPES pH 7.4 containing 0.15 M NaCl, 3 mM EDTA and 0.005% P20. All subsequent dilutions were made in the same buffer. All binding experiments were performed at 25° C. with IgG concentrations typically ranging from 100 nM to 0.2 nM at a flow rate of 75 μL/min; data were collected for approximately 20 min and one 1-min pulse of 1M NaCl, 50 mM NaOH was used to regenerate the surfaces. IgGs were also flowed over an uncoated cell and the sensorgrams from these blank runs subtracted from those obtained with EphA2-Fc-coupled chips. Data were fitted to a 1:1 Langmuir binding model. This algorithm calculates both the kₒₙ and the koff, from which the apparent equilibrium dissociation constant, KD, is deduced as the ratio of the two rate constants (koff/kₒₙ).
(In general: Surface plasmon resonance follows binding to a sensor surface in real time, without labels.)

The target of assay [2] is T1, EphA2-Fc. The assay is described as follows: SPR (BIAcore 3000), EphA2-Fc immobilized on CM5 chip, soluble IgG, 1:1 Langmuir fit; below the limit of detection. The protocol:
as §1

T1 sequence (P29317 25-534 limits assumed): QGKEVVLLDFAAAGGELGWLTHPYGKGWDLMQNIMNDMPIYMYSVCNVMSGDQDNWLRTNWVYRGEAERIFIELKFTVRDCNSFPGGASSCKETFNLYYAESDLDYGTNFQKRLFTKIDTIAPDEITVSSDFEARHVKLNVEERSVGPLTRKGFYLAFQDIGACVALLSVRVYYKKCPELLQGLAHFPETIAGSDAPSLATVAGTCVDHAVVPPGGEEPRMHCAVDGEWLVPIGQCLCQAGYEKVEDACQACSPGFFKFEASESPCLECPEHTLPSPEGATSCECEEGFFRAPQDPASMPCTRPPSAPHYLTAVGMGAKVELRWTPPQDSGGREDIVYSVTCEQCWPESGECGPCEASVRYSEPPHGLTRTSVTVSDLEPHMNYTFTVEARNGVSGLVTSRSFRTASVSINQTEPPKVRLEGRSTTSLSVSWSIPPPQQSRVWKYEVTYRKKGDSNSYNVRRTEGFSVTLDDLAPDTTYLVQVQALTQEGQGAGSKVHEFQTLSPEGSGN

B1: 12G3/M, heavy chain modified 12G3 (S60A/A61D, Kabat) (antibody, human IgG1, V domains shown)
VH: QMQLVQSGPEVKKPGTSVKVSCKASGFTFDDYSMNWVRQARGQRLEWIGFIRNKANDYTTEYADSVKGRVTITRDMSTSTAYMELSSLRSEDTAVYYCARYPRHHAMDSWGQGTSVTVSS
VL: DIQMTQSPSSLSASVGDRVTITCRASQSISNNLHWYQQKPGKAPKLLIKYAFQSISGVPSRFSGSGSGTDFTFTISSLQPEDFATYYCQQANSWPLTFGGGTKVEIK
notes: The light chain is unaltered; Human IgG1 / kappa; also called 12G3/Mut
B1: the kon with EphA2-Fc [1] is 187000 M⁻¹ s⁻¹. In the assay with EphA2-Fc [2], the dissociation constant (Kd) is less than 0.027 nM and the koff was less than 5e-06 s⁻¹.

B2: 12G3 humanized anti-EphA2 monoclonal antibody (antibody, human IgG1, V domains shown)
VH: B1 VH with A63S, D64A
VL: B1 VL
notes: Expressed as soluble human IgG1 (human gamma 1, human kappa)
With B2, in the assay with EphA2-Fc [1], the Kd was 0.034 nM, the koff worked out at 8.49e-06 s⁻¹ and the association rate constant (kon) was 246000 M⁻¹ s⁻¹.

B3: 4C10 humanized anti-EphA2 monoclonal antibody (antibody, human IgG1, V domains shown)
VH: B1 VH with N35T, D57A, A63S, D64A
VL: B1 VL with A91S
notes: Expressed in HEK 293 cells as soluble human IgG1 (human gamma 1 heavy chain, human kappa light chain)
With B3, in the assay with EphA2-Fc [1], the equilibrium dissociation constant (Kd) worked out at 0.095 nM, the koff came out at 9.75e-06 s⁻¹ and the association rate constant (kon) is 102000 M⁻¹ s⁻¹.

B4: 4C10/M, heavy chain modified 4C10 (S60A/A61D, Kabat) (antibody, human IgG1, V domains shown)
VH: B1 VH with N35T, D57A
VL: B1 VL with A91S
notes: The light chain is unaltered; Human IgG1 / kappa; also called 4C10/Mut
In the case of B4, in the assay with EphA2-Fc [1], the dissociation constant Kd came to 0.093 nM, the koff amounted to 5.96e-06 s⁻¹ and the kon was 64100 M⁻¹ s⁻¹.

In general, kon refers to the second-order rate constant of association. Low readings indicate slower complex formation, high ones faster complex formation. A word on the Kd: it is the equilibrium constant for the complex coming apart. As a reminder, the koff is the rate constant with which the complex falls apart. Low readings indicate slow dissociation, high ones fast dissociation.
